Molecular target: the molecule itself
Test: SEC; 1 mg of ntcNDCBE on Superdex 200 10/300 GL; eluted at 14.2 mL, compared with molecular weight standards

B1: truncated (ΔVR1) N-terminal cytoplasmic domain of human sodium-driven chloride/bicarbonate exchanger NDCBE-D (domain or fragment, UniProt Q2Y0W8-4 40-344, looked up)
chain: DTPSQRVQFILGTEEDEEHVPHELFTELDEICMKEGEDAEWKETARWLKFEEDVEDGGERWSKPYVATLSLHSLFELRSCLINGTVLLDMHANSIEEISDLILDQQELSSDLNDSMRVKVREALLKKHHHQNEKKRNNLIPIVRSFAEVGKKQSDPHLMDKHGQTVSPQSVPTTNLEVKNGVNCEHSPVDLSKVDLHFMKKIPTGAEASNVLVGEVDILDRPIVAFVRLSPAVLLSGLTEVPIPTRFLFILLGPVGKGQQYHEIGRSMATIMTDEIFHDVAYKAKERDDLLAGIDEFLDQVTVLP
notes: human NDCBE (SLC4A8) isoform D, N-terminal cytoplasmic core domain, amino acids 40-344 (made by mutagenesis from the 40-425 construct); numbers count on: isoform D (Q2Y0W8-4); Forms a homodimer in the crystal and in solution; Codon-optimised gene in pET-M11; His tag removed with TEV protease; also called ntcNDCBE; regulatory N-terminal domain of human NDCBE; source: E. coli BL21 Gold, purified …
- stoichiometry N: 2

Source: publication PMC5608694, “The crystal structure of the regulatory domain of the human sodium-driven chloride/bicarbonate exchanger” (Scientific Reports, 2017)
